Data set [1] deals with ADH. The data set is described as follows: Stability and degradation profile of ADH in the presence of AcH scavengers over time. The class given is physicochemical, Saccharomyces cerevisiae. Particulars: 37° C., gentle shaking. As for the experimental part:
Conditions: 37° C. for up to 60 min with gentle shaking (100 rpm), ADH activity assessed via NADH production (340 nm). AcH scavenger-containing composition (total 455 mg): Thiamine hydrochloride (Vitamin B1): 100 mg; Glutathione (GSH): 15 mg; NAC (N-Acetyl-Cysteine) OR L-Cysteine: 200 mg; α-Lipoic acid: 40 mg; Pyridoxine hydrochloride (Vitamin B6): 100 mg and buffer Solution: 100 mM sodium phosphate buffer, pH 7.4.

Data set [2] deals with ADH purified from Saccharomyces cerevisiae. The data set is described as follows: Enzyme kinetics of ADH with AcH scavengers (Michaelis-Menten, NADH production at 340 nm). The class given is biochemical. Particulars: pH 7.4, 37° C., 5 min incubation. As for the experimental part:
ADH purified from Saccharomyces cerevisiae (500 U/mg protein) was used. EtOH Concentrations: 5, 10, 20, 50, 100, 200 mM. Reaction Volume: 1 mL with 100 mM sodium phosphate buffer (pH 7.4). 37° C., 5 min incubation. NADH production measured at 340 nm using a spectrophotometer. Two groups: a) control ADH+EtOH; and b) ADH+EtOH+AcH scavenger mixture.

Data set [3] has as its system HepG2 Liver Cells. The data set is described as follows: HepG2 ROS under EtOH exposure (DCFH-DA assay). The class given is cell-based. Particulars: HepG2, 100 mM EtOH for 24 hours. As for the experimental part:
(§1) Cells were exposed to 100 mM EtOH for 24 hours. Group 1 (Control): EtOH only; Group 2: EtOH+ADH; Group 3: EtOH+AcH scavenger-containing composition; and Group 4 (Combined): EtOH+ADH+AcH scavenger-containing composition.
(§2) Cell viability was detected by MTT assay (absorbance at 570 nm). ROS (Reactive Oxygen Species) was detected by DCFH-DA assay (fluorescence at 488 nm).

A short description of data set [4]: In vitro reduction of EtOH by ADH and AcH scavengers (NAD/NADH-based enzymatic assay, 340 nm). It counts as biochemical. Particulars: 200 U ADH, 455 mg scavenger mixture, pH 7.4, 37° C., 30 minutes. As for the experimental part: (§3) An in vitro study was conducted to evaluate the effect of a combined formulation of ADH and AcH scavengers on the reduction of EtOH and AcH concentrations. The study was designed to assess the enzymatic conversion of EtOH to AcH by ADH and the subsequent removal of AcH by scavengers. The experiment was performed using enzyme preparation from yeast (Saccharomyces cerevisiae).
(§4) The following materials and reagents were used: EtOH 99.9% pure, analytical grade and ADH purified from Saccharomyces cerevisiae (500 U/mg protein) (SEQ ID NO: 1, see Table 1). AcH scavenger-containing composition (total 455 mg): Thiamine hydrochloride (Vitamin B1): 100 mg; Glutathione (GSH): 15 mg; NAC (N-Acetyl-Cysteine) OR L-Cysteine: 200 mg; α-Lipoic acid: 40 mg; Pyridoxine hydrochloride (Vitamin B6): 100 mg and buffer Solution: 100 mM sodium phosphate buffer, pH 7.4.
(§5) The experiment was conducted in triplicate with appropriate controls to ensure reproducibility. […]
(§6) EtOH concentration was measured using a NAD/NADH-based enzymatic assay with a spectrophotometer at 340 nm. AcH concentration was measured using a modified Hantzsch reaction assay, which detects AcH at 412 nm.

In data set [5] the test system is HepG2 Liver Cells. The data set is described as follows: HepG2 cell viability under EtOH exposure (MTT assay). It counts as cell-based. Particulars: HepG2, 100 mM EtOH for 24 hours. As for the experimental part:
as §1, §2
For orientation: Formazan colour is commonly taken as a measure of viable cells.

Data set [6] can be described thus: In vivo blood EtOH concentration in rodents after oral EtOH. On the set-up: species or system Sprague-Dawley rats. Particulars: rat blood, 2 g/kg EtOH oral, ADH 600 U/kg IP. As for the experimental part: The study was performed to evaluate the efficacy of a combined formulation of ADH and AcH scavengers in reducing blood EtOH and AcH concentrations in an in vivo rodent model.
12 male Sprague-Dawley rats (200 to 250 g), housed under standard conditions (12-hour light/dark cycle, 22±2° C.) were administered with 2 g/kg EtOH orally via gavage.
Groups (n=3): Group 1 (Control): EtOH only (no ADH or scavengers). Group 2: EtOH+ADH (600 U/kg, intraperitoneally). Group 3: EtOH+AcH scavenger-containing composition. Group 4 (Combined): EtOH+ADH (600 U/kg, IP)+AcH scavenger-containing composition.
Blood samples were collected from the tail vein at 0, 15, 30, 60, and 120 minutes post-EtOH administration. EtOH concentration was measured using a NAD/NADH-based enzymatic assay.

Data set [7] is described as follows: In vitro AcH concentration after ADH and AcH scavengers (modified Hantzsch reaction assay, 412 nm). Particulars: 100 mM EtOH start, 200 U ADH, 455 mg scavenger mixture, pH 7.4, 37° C., 30 minutes. It counts as biochemical. As for the experimental part: as §3, §4, §5, §6

These results are taken from patent US12527847B1, “Compositions and methods for reducing blood ethanol concentration through alcohol dehydrogenase and acetaldehyde scavengers” (Goa Therapeutics Corporation, priority 2025, dated 2026).

B1: ADH: ADH purified from Saccharomyces cerevisiae (500 U/mg protein), SEQ ID NO: 1 (protein, listed as Saccharomyces cerevisiae)
chain: MSTAVAVLTSNADTDIFAKPVAGVDGSHVIDAAAVFGLGKETVVDALKDYKTGATTPAVAQKLGVEGAKALVGVPQKVESNDFFVAKAKDAGTEVIVGGMGGVGLSAIGASLKPGYELDKAKIEVASKLAAGAKVTVITPQCGHEVIVGVPPDSQNLSMRIAQLGGKSPFTKEKDLNYFAVEKAKELGATGSKIINLIMGKVMPEGQKIHLGHEIVGDLGVVTKDAASGKLPIISIGHEAVKNAVKVLENAELEGLTKEGAKVTVVGNPQIYSDDHVAVAGTSLSTLNKLLDAIKKADTSKPIQEVLSDKAKEVGIEEGLMTTVHAITGAAGAASALPFGVTAAL
As to B1, the “ADH activity (% of t = 0)” value in data set [1] (30 min) is given as 87 % of t = 0; in data set [1] (60 min), 62 % of t = 0. Besides, the Vmax in data set [2] (EtOH 5-200 mM) turned out to be 105.2 µmol/min. The kcat in data set [2] (EtOH 5-200 mM) is given as 105.2. Besides, the Km in data set [2] (substrate EtOH 5-200 mM) was found to be 32.5 mM. The “ROS (% of control)” value in data set [3] (DCFH-DA, control = EtOH only) is reported as 85.6 % of control. Further, the “ROS Impact (in words)” value in data set [3] (results interpretation) is recorded as “Moderate ROS”. In addition, in data set [4] (100 mM EtOH start), the “EtOH Final” value is listed as 85.8 mM. In data set [4] (100 mM EtOH, 1 mL), the “EtOH Reduction (%)” value amounted to 14.2%. The “Cell viability (%)” value in data set [5] (MTT) is 67.1%. In addition, the “Overall Impact on Viability (in words)” value in data set [5] (results interpretation) is “Viability increases”. The “EtOH concentration (% of control)” value was 95 % of control in data set [6] (0 min); 85.2 % of control in data set [6] (15 min); 75.8 % of control in data set [6] (30 min); 68 % of control in data set [6] (60 min); 44.8 % of control in data set [6] (120 min). For the same molecule, in data set [7], the “AcH Final” value came out at 235 µM.

As a reminder, the Vmax is the top rate of the reaction or transport when substrate is in excess. As usually defined, the Km is the concentration of substrate that gives half-maximal velocity.
